Measured values from patent US20260232827A1 (Zymeworks, published 2026).
Where two headings read alike, the source gives them in different places. Values belong to the binder of their own block, whether it stands above or below them.

Experiments:
[1] = molecular target: T1, human sodium-dependent phosphate transporter 2B (NaPi2b) (human, UniProt O95436 1-690); assay: KinExA, monovalent antibody, IGROV-1 cells
T1 construct: UniProt ID is given as 095436 [sic]; also called hNaPi2b; Hu NaPi2b
T1 sequence: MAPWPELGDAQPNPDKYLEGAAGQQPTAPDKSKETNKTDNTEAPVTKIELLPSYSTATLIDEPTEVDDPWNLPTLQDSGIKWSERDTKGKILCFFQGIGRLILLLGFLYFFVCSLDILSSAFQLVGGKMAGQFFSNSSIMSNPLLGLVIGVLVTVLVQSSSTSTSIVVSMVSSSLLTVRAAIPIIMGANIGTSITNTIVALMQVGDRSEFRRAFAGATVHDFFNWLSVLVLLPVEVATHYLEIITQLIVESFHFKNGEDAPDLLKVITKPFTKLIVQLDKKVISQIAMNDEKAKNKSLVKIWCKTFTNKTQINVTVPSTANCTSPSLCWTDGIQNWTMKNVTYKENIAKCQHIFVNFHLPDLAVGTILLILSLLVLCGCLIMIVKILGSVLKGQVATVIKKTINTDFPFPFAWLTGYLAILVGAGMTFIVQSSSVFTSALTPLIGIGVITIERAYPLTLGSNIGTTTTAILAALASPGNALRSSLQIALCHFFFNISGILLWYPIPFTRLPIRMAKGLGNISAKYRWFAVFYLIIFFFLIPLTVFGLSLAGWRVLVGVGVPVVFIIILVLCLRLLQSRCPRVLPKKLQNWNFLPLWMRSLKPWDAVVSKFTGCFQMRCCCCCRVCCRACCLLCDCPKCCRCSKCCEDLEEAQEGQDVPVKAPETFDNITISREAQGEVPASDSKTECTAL

[2] = molecular target: T1, human sodium-dependent phosphate …; assay: KinExA, monovalent antibody, IGROV-1 cells (endogenous NaPi2b) as titrant, N-curve analysis
[3] = molecular target: T2, KLH (Sigma-Aldrich, H8283); assay: NS-ELISA, KLH coated, antibody at 100 nM
T2 construct: Coating protein of the NS-ELISA

[4] = molecular target: T3, human NaPi2b (sodium-dependent phosphate transporter 2B) (human, UniProt O95436 1-690); assay: flow cytometry on HCC-78 cells (endogenous NaPi2b), 24 h at 4 C
T3 construct: Endogenous NaPi2b on the human tumor cell lines IGROV-1, HCC-78, H441 and H1781; also called hNaPi2b; SLC34A2
T3 sequence: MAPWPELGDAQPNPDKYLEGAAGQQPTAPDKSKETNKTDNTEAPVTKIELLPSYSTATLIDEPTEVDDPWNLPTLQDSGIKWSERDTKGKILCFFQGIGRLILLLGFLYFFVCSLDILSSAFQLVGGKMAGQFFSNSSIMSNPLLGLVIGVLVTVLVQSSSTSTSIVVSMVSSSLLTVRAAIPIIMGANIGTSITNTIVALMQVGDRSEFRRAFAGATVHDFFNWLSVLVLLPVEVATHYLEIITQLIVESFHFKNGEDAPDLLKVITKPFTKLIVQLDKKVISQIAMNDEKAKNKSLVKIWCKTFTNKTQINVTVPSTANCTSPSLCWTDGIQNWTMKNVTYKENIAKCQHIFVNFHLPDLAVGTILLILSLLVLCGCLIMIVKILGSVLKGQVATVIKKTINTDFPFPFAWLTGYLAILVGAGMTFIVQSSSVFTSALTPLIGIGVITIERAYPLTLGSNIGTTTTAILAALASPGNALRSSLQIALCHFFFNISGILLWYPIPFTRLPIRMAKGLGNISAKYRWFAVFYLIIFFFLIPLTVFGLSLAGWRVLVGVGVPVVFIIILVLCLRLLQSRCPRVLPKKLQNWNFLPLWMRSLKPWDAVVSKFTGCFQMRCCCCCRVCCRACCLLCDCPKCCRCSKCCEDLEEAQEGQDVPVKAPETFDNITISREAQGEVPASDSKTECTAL

[5] = molecular target: T4, human FcγR I CD64 (Sino Biological Inc. 10256-H08H) (human, UniProt P12314 16-288); assay: SPR (Biacore T200), antibody captured on protein A, FcγR as analyte, multicycle, 1:1 fit
T4 construct: Bought reagent

[6] = molecular target: T3, human NaPi2b (sodium-dependent …); assay: flow cytometry on IGROV-1 cells (endogenous NaPi2b), 24 h at 4 C
[7] = molecular target: T5, human FcγR IIIA F159 CD16aF (v5772) (human, UniProt P08637 17-208, limits assumed); assay: SPR (Biacore T200), antibody captured on protein A, FcγR as analyte, single-cycle, steady-state fit
T5 construct: In-house reagent

[8] = molecular target: T6, human FcγR IIA H131 CD32aH (v5774) (human, UniProt P12318 34-217, limits assumed); assay: as above
T6 construct: In-house reagent
T6 sequence (looked up): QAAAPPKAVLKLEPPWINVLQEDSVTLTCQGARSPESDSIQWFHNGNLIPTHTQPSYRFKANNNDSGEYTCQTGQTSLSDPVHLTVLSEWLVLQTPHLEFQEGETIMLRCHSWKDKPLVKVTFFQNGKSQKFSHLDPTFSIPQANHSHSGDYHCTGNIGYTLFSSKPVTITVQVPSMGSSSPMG

[9] = molecular target: T7, human FcγR IIB Y160 CD32bY (v5777) (human, UniProt P31994 43-217, limits assumed); assay: as above
T7 construct: In-house reagent
T7 sequence (looked up): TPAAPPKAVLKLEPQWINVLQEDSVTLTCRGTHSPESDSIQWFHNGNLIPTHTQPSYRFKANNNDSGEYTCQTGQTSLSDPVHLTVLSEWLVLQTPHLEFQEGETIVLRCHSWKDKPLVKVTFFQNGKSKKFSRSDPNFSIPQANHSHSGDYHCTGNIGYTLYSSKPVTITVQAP

Biotinylated human FcRn = molecular target: T8, Biotinylated human FcRn (human, UniProt P55899 24-297; P61769 21-119, limits assumed, biotinylated (site not stated)); assay: SPR (Biacore T200), biotinylated FcRn on neutravidin, antibody as analyte, pH 5.9, steady-state fit
T8 construct: also called Biotinlated human FcRn; human neonatal fragment crystallizable receptor (FcRn)

[10] = molecular target: T3, human NaPi2b (sodium-dependent …); assay: flow cytometry on H441 cells (endogenous NaPi2b), 24 h at 4 C
[11] = molecular target: T5, human FcγR IIIA F159 CD16aF (v5772); assay: SPR (Biacore T200), antibody captured on protein A, FcγR as analyte, single-cycle, steady-state fit; remark: listed apart in the source
[12] = molecular target: T6, human FcγR IIA H131 CD32aH (v5774); assay: as above; remark: listed apart in the source
[13] = molecular target: T7, human FcγR IIB Y160 CD32bY (v5777); assay: as above; remark: listed apart in the source
[14] = molecular target: T4, human FcγR I CD64 (Sino Biological Inc. …); assay: SPR (Biacore T200), antibody captured on protein A, FcγR as analyte, multicycle, 1:1 fit; remark: listed apart in the source
cynomolgus monkey NaPi2b [15] = molecular target: T9, cynomolgus monkey NaPi2b (cynomolgus monkey, UniProt O95436 1-690 (human entry)); assay: flow cytometry, HEK293-6e cells transfected with cynomolgus NaPi2b; apparent Kd
T9 construct: also called Cyno NaPi2b; Cy NaPi2b
T9 chain: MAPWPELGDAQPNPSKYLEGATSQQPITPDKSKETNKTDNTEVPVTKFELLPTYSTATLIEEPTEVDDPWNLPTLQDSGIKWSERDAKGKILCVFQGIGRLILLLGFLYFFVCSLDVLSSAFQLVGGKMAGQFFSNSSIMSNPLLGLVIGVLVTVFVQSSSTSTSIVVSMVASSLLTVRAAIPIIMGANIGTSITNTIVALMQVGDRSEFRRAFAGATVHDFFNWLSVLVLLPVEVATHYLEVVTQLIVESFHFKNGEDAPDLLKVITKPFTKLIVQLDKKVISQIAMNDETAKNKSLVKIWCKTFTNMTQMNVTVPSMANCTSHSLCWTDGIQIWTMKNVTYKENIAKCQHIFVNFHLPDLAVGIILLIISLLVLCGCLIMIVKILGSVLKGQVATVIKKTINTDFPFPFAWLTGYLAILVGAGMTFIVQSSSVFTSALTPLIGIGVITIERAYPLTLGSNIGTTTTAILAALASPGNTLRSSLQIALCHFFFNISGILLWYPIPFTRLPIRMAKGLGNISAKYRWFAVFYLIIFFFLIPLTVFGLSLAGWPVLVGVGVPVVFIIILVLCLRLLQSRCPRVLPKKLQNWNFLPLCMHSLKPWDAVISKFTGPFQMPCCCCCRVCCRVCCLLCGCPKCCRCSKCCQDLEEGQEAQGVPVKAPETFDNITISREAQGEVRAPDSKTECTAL

[16] = molecular target: T1, human sodium-dependent phosphate …; assay: flow cytometry, HEK293-6e cells transfected with human NaPi2b
[17] = molecular target: T10, KLH (Sigma-Aldrich, H8283); assay: non-specific ELISA, KLH coated, antibody 100 nM
T10 construct: Coating of the non-specific ELISA

mouse NaPi2b = molecular target: T11, mouse NaPi2b (mouse, UniProt Q9DBP0 1-697); assay: flow cytometry, HEK293-6e cells transfected with mouse NaPi2b; apparent Kd
T11 construct: also called Ms NaPi2b; CL #13476
T11 sequence: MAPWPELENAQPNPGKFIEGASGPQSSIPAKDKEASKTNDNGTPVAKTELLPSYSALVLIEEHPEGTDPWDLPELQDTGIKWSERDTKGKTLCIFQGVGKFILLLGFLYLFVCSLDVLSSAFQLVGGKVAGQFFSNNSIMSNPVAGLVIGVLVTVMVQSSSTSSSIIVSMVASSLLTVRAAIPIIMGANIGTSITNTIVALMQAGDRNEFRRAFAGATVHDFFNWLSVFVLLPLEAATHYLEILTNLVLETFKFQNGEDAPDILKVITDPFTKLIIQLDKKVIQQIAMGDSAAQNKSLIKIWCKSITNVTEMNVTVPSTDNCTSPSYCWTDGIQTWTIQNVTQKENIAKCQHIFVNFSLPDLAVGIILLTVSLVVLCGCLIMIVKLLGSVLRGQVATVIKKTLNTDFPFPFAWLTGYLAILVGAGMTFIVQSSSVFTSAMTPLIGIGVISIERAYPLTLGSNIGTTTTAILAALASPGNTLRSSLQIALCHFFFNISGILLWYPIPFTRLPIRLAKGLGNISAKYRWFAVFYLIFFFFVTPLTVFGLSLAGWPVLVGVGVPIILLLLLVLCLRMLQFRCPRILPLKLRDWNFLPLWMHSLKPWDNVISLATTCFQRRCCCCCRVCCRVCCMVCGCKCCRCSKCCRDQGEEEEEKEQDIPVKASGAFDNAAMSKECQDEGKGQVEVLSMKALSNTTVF

cynomolgus monkey NaPi2b [18] = molecular target: T9, cynomolgus monkey NaPi2b; assay: flow cytometry, HEK293-6e cells transfected with cynomolgus NaPi2b
[19] = molecular target: T1, human sodium-dependent phosphate …; assay: flow cytometry, IGROV-1 cells (endogenous NaPi2b); apparent Kd
[20] = molecular target: T1, human sodium-dependent phosphate …; assay: flow cytometry, HEK293-6e cells transfected with human NaPi2b; apparent Kd
[21] = molecular target: T1, human sodium-dependent phosphate …; assay: flow cytometry, IGROV-1 cells (endogenous NaPi2b); design: unit not given here

T4 sequence (P12314 16-288 limits assumed): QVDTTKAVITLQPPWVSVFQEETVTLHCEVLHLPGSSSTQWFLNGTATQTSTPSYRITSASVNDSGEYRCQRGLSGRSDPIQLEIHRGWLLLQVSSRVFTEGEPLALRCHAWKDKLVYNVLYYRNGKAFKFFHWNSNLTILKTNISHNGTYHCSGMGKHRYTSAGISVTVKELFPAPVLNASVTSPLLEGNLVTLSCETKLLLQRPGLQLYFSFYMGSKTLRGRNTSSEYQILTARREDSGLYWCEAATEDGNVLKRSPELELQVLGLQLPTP
T5 sequence (P08637 17-208 limits assumed): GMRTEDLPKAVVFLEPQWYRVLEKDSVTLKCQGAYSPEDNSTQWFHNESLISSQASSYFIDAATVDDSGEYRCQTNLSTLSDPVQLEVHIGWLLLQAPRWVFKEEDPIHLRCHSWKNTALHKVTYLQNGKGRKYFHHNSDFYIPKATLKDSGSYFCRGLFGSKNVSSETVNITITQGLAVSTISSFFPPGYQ

fold lower binding affinity compared to chimeric parental antibody construct [1]: ~2 fold | Kd [2]: 0.297 nM
B1: v36123 (monovalent format of humanized antibody variant 29452) (antibody, V domains shown)
VH: QVQLVQSGAEVKKPGASVKVSCKASGFTFTSYNVHWVRQAPGQGLEWMGAISPGNGDLSYAQKFQGRVTMTRDTSTSTVYMELSSLRSEDTAVYYCARGRTGMGAVDYWGQGTLVTVSS
VL: DVQMTQSPSSLSASVGDRVTITCRASQDVYSYLNWYQQKPGKAVKLLIYYTSRLQSGVPSRFSGSGSGTDYTLTISSLQPEDIATYYCQQYNIFPWTFGQGTKLEIK
notes: Monovalent format; rest of the construct not described; also called VH1/VL3

NS-ELISA (Binding score) [3]: 0.97 ratio to buffer well | Bmax (MFI) [4]: 7990 MFI | Kd [4]: 1.03 nM | Binding percentage [5]: 91.2% | Kd [5]: 0.0585 nM | Bmax (MFI) [6]: 10200 MFI | Kd [6]: 0.8 nM | Kd [7]: 1130 nM | Binding percentage [8]: 80% | Kd [8]: 799 nM | Binding percentage [9]: 103% | Kd [9]: 4980 nM | Binding percentage (Biotinylated human FcRn): 28.6% | Bmax (MFI) [10]: 511 MFI | Kd [10]: 0.85 nM | Kd [11]: 1130 nM | Binding percentage [12]: 80% | Kd [12]: 799 nM | Binding percentage [13]: 103% | Kd [13]: 4980 nM | Kd [14]: 0.0585 nM
B2: v38591 (humanized anti-NaPi2b antibody, wild-type Fc) (antibody, human IgG1, kappa)
heavy: not shown
light: DVQMTQSPSSLSASVGDRVTITCRASQDVYSYLNWYQQKPGKAVKLLIYYTSRLQSGVPSRFSGSGSGTDYTLTISSLQPEDFATYYCQQYNIFPWTFGQGTKLEIKRTVAAPSVFIFPPSDEQLKSGTASVVCLLNNFYPREAKVQWKVDNALQSGNSQESVTEQDSKDSTYSLSSTLTLSKADYEKHKVYACEVTHQGLSSPVTKSFNRGEC
notes: Full-size human IgG1/kappa; Identical to v29456 except that the heavy chains include a C-terminal lysine; also called v38591 Wild-type; v38591Wild-type

Kd (cynomolgus monkey NaPi2b [15]): 3.2 nM | Bmax [16]: 2540 | NS-ELISA binding score (signal over buffer well) [17]: 1.37 | Kd (mouse NaPi2b): 10.6 nM | Bmax (cynomolgus monkey NaPi2b [18]): 2010 | Kd [19]: 1.1 nM | Kd [20]: 5.2 nM | Bmax [21]: 40900
B3: v29456 (H1L2) (antibody, human IgG1, kappa)
heavy: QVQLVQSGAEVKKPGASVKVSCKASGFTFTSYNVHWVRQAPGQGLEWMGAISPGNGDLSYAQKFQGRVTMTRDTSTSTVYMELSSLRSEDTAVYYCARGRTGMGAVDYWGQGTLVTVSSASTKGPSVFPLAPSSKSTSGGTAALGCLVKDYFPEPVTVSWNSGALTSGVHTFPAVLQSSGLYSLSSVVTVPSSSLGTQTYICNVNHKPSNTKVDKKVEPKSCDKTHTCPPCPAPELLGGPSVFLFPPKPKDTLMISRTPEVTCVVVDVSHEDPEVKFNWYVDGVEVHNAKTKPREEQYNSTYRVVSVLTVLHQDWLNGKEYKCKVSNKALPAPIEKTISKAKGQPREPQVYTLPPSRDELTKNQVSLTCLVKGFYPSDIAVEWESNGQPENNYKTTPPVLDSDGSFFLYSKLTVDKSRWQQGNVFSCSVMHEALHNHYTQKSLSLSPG
light: DVQMTQSPSSLSASVGDRVTITCRASQDVYSYLNWYQQKPGKAVKLLIYYTSRLQSGVPSRFSGSGSGTDYTLTISSLQPEDFATYYCQQYNIFPWTFGQGTKLEIKRTVAAPSVFIFPPSDEQLKSGTASVVCLLNNFYPREAKVQWKVDNALQSGNSQESVTEQDSKDSTYSLSSTLTLSKADYEKHKVYACEVTHQGLSSPVTKSFNRGEC
notes: Humanized IgG1/kappa; heavy chain ends at G446 (EU); also called humanized antibody variant v29456
